Test results as given in patent US20190233493A1 (Sanofi, published 2019).
*1 amine or outer side, *2 acyl side, *3 side chain or, on linkers, in order; H or OH if unused. Primed or numbered codes have the meaning given here. Side-chain parts run from the residue outwards. [ ]: non-standard residue; d: D form. The star is where a group is joined. PEG2DGA = 2-[2-[3-[2-[2-(3-aminopropoxy)ethoxy]ethoxy]propylamino-2-oxo-ethoxy]acetyl; γGlu = O=C(O)[C@H](CCC(=O)[*:2])N[*:1]; 1Nal = N[C@@H](Cc1cccc2ccccc12)C(=O)O; Stearoyl = CCCCCCCCCCCCCCCCCC(=O)*; Palmitoyl = CCCCCCCCCCCCCCCC(=O)*; αMeK = C[C@](N)(CCCCN)C(=O)O; Nle = CCCC[C@H](N)C(=O)O; PEG2′ = PEG2 spacer unit; PEG2″ = not defined here; Aib = CC(C)(N)C(=O)O

T1: RXFP1 receptor (UniProt Q9HBX9 1-757, limits assumed)
T1 sequence (looked up): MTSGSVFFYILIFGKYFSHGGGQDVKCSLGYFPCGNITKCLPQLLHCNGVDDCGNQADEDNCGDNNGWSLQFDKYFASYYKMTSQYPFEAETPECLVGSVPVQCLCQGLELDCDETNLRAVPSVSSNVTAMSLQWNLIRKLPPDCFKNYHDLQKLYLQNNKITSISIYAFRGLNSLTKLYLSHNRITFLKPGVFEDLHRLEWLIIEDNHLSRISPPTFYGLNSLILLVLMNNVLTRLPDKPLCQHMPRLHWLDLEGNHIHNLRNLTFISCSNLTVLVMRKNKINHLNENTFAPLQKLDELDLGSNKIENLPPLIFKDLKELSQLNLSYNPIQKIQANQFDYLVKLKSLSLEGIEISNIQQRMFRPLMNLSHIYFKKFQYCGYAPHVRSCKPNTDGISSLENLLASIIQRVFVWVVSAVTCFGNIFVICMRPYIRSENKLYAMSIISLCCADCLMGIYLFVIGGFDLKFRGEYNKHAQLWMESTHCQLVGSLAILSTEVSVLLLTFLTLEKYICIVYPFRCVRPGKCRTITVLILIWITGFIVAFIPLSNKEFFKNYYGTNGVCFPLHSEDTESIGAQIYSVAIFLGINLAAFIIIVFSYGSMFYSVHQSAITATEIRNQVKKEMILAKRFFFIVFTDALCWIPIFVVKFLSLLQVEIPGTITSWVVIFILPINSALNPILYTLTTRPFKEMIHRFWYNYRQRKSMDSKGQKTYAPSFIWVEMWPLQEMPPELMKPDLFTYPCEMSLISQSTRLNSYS


Target: T1, RXFP1 receptor
Assay: cell-based or functional assay

Row | Binder | EC50 (nM), OVCAR 5 cells (cAMP) [nM] | EMax, OVCAR 5 cells (cAMP) [%]
1 | Ac-LEGREKVR[Aib]K(Ac)I[Aib][Aib]EG[Nle]ST[1Nal]S[Aib]RKK([PEG2′-PEG2′-PEG2′-γGlu-γGlu-γGlu-Stearoyl])-NH2 [peptide of SEQ ID NO: 80] | 0.73 | 68
2 | Ac-LEGREKVRAK(Ac)I[Aib][Aib]EG[Nle]STWS[αMeK]RKK(Ac)K([PEG2′-PEG2′-PEG2′-γGlu-γGlu-γGlu-γGlu-Stearoyl])-NH2 [peptide of SEQ ID NO: 82] | 0.02 | 89
3 | Ac-LEGREKVRAK(Ac)I[Aib][Aib]EG[Nle]STWS[Aib]RKKK([PEG2′-PEG2′-PEG2′-PEG2′-γGlu-γGlu-γGlu-Stearoyl])-NH2 [peptide of SEQ ID NO: 91] | 0.01 | 88
4 | Ac-LEGREKVRAK(Ac)I[Aib][Aib]EG[Nle]STWS[Aib]RKK(Ac)K([PEG2′-PEG2′-PEG2′-PEG2′-γGlu-γGlu-γGlu-Stearoyl])-NH2 [peptide of SEQ ID NO: 90] | 0.07 | 89
5 | Ac-LEGREKVRAQI[Aib][Aib]EG[Nle]STWS[Aib]RKKK([PEG2′-PEG2′-PEG2′-PEG2′-PEG2′-γGlu-γGlu-γGlu-Stearoyl])-NH2 [peptide of SEQ ID NO: 93] | 0.14 | 87
6 | Ac-LEGREKVRAK(Ac)I[Aib][Aib]EG[Nle]ST[1Nal]S[Aib]RKK(Ac)K([PEG2′-PEG2′-PEG2′-γGlu-γGlu-γGlu-Stearoyl])-NH2 [peptide of SEQ ID NO: 84] | 0.09 | 76
7 | Ac-LEGREKVRAK(Ac)I[Aib][Aib]EG[Nle]STWS[Aib]RKK(Ac)K([PEG2′-PEG2′-PEG2′-γGlu-γGlu-γGlu-Stearoyl])-NH2 [peptide of SEQ ID NO: 81] | 0.22 | 84
8 | Ac-LEGREKVRAQI[Aib][Aib]EG[Nle]STWS[Aib]RK[PEG2″]K([γGlu-γGlu-γGlu-Palmitoyl])-NH2 [peptide of SEQ ID NO: 10] | 18.9 | 96
9 | Ac-LEGREKVRAK(Ac)I[Aib][Aib]EG[Nle]STWS[Aib]RKK([PEG2′-PEG2′-PEG2′-γGlu-γGlu-γGlu-Stearoyl])-NH2 [peptide of SEQ ID NO: 83] | 0.85 | 92
10 | Ac-LEGREKVRAQI[Aib][Aib]EG[Nle]STWS[Aib]RKKK([PEG2′-PEG2′-PEG2′-γGlu-γGlu-γGlu-γGlu-Stearoyl])-NH2 [peptide of SEQ ID NO: 88] | 0.11 | 74
11 | Ac-LEGREKVRAK(Ac)I[Aib][Aib]EG[Nle]ST[1Nal]S[Aib]RKK([PEG2″-PEG2″-PEG2″-γGlu-γGlu-γGlu-Stearoyl])-NH2 [peptide of SEQ ID NO: 79] | 0.4 | 75
12 | Ac-LEGREKVRAQI[Aib][Aib]EG[Nle]STWS[Aib]RKK([γGlu-γGlu-γGlu-Stearoyl])-NH2 (SMILES CCCCCCCCCCCCCCCCCC(=O)N[C@@H](CCC(=O)N[C@@H](CCC(=O)N[C@@H](CCC(=O)NCCCC[C@H](NC(=O)[C@H](CCCCN)NC(=O)[C@H](CCCNC(=N)N)NC(=O)C(C)(C)NC(=O)[C@H](CO)NC(=O)[C@H](Cc1c[nH]c2ccccc12)NC(=O)[C@@H](NC(=O)[C@H](CO)NC(=O)[C@H](CCCC)NC(=O)CNC(=O)[C@H](CCC(=O)O)NC(=O)C(C)(C)NC(=O)C(C)(C)NC(=O)[C@@H](NC(=O)[C@H](CCC(N)=O)NC(=O)[C@H](C)NC(=O)[C@H](CCCNC(=N)N)NC(=O)[C@@H](NC(=O)[C@H](CCCCN)NC(=O)[C@H](CCC(=O)O)NC(=O)[C@H](CCCNC(=N)N)NC(=O)CNC(=O)[C@H](CCC(=O)O)NC(=O)[C@H](CC(C)C)NC(C)=O)C(C)C)[C@@H](C)CC)[C@@H](C)O)C(N)=O)C(=O)O)C(=O)O)C(=O)O) [peptide of SEQ ID NO: 9] | 11.8 | 95
13 | Ac-LEGREKVR[Aib]K(Ac)I[Aib][Aib]EG[Nle]ST[1Nal]S[Aib]RKK(Ac)K([PEG2′-PEG2′-PEG2′-γGlu-γGlu-γGlu-Stearoyl])-NH2 [peptide of SEQ ID NO: 85] | 0.77 | 75
14 | Ac-LEGREKVRAQI[Aib][Aib]EG[Nle]STWS[Aib]RKKK([PEG2′-PEG2′-PEG2′-PEG2′-γGlu-γGlu-γGlu-Stearoyl])-NH2 [peptide of SEQ ID NO: 92] | 0.26 | 82
15 | Ac-LEGREKVRAK(Ac)I[Aib][Aib]EG[Nle]ST[1Nal]S[Aib]RK(Ac)LK([PEG2′-PEG2′-PEG2′-γGlu-γGlu-γGlu-Stearoyl])-NH2 [peptide of SEQ ID NO: 87] | 1.63 | 71
16 | Ac-LEGREKVRAK(Ac)I[Aib][Aib]EG[Nle]STWS[Aib]RKK(Ac)K([PEG2DGA-PEG2DGA-γGlu-γGlu-γGlu-Stearoyl])-NH2 [peptide of SEQ ID NO: 95] | 1.03 | 87
17 | Ac-LEGREKVRAK(Ac)I[Aib][Aib]EG[Nle]STWS[Aib]RKK(Ac)K([PEG2DGA-γGlu-γGlu-γGlu-Stearoyl])-NH2 [peptide of SEQ ID NO: 94] | 2.74 | 90
18 | Ac-LEGREKVRAK(Ac)I[Aib][Aib]EG[Nle]STWS[Aib]RKK(Ac)K([PEG2DGA-PEG2DGA-PEG2DGA-γGlu-γGlu-γGlu-Stearoyl])-NH2 [peptide of SEQ ID NO: 96] | 1.77 | 89
19 | Ac-LEGREKVRAK(Ac)I[Aib][Aib]EG[Nle]STWS[Aib]RKKK([PEG2′-PEG2′-PEG2′-γGlu-γGlu-γGlu-γGlu-Stearoyl])-NH2 [peptide of SEQ ID NO: 89] | 0.03 | 79
